Laboratory results published in patent US20230340111A1 (published 2023).
Positions count from the first letter of the chain named.

B1: HA-tagged variant of VHH A3 (VHH)
VHH: QVQLQESGGGLVQAGGSLRLSCGVSGNMFSMNLMGWYRQPPGKERDWVAVITKDGSTNYADSVKGRFTISRDNAKNTVSLQMNSLKPEDTAVYYCNVQDGSGWIRAWGWDWGQGTQVTVSS
notes: Used as VHH-containing bacterial (periplasmic) extract in ELISA; also called A3 HA-tag
B2: HA-tagged variant of VHH A5 (VHH)
VHH: B1 VHH with M28I, D46E, V50L, A60E, V97A
notes: Used as VHH-containing bacterial (periplasmic) extract in ELISA; also called A5 HA-tag
B3: HA-tagged variant of VHH A4 (VHH)
VHH: QVQLQESGGGLARAGGSLRLSCAASGRAFSSTYAMGWFRQAPGKEREFVADINWSEGSPMYIDSVKDRFTISRDNARNSLYLQMNSLKSEDTAVYYCAARRFGQGYEYWGQGTQVTVSS
notes: Used as VHH-containing bacterial (periplasmic) extract in ELISA; also called A4 HA-tag
B4: His6-tagged variant of VHH A5 (VHH)
VHH: B1 VHH with Q1D, Q5V, M28I, D46E, V50L, A60E, V97A
notes: Purified, unlabelled; also called A5 His6-tag
B5: His6-tagged variant of VHH A4 (VHH)
VHH: B3 VHH with Q1D, Q5V
notes: Purified, unlabelled; also called A4 His6-tag
B6: His6-tagged variant of VHH A1 (VHH)
VHH: DVQLVESGGGLVQPGGSLRLSCAASESIFSRNHMSWYRQAPGKQRELAAIITSDGNTNYPDSVKGRFTISRDNAKNTVYLQMNSLKPEDTAVYYCNTFGRSVAGFYDYWGQGTQVTVSS
notes: Purified, unlabelled; also called A1 His6-tag
B7: 131I-labeled untagged VHH A3 (VHH)
VHH: B1 VHH with Q1D, Q5V
modifications: [131I]SGMIB conjugated to lysine side-chain amine groups

Columns and labels:
[1] = biological target: T1, human folate receptor beta (FOLR2), extracellular domain, recombinant (human, UniProt P14207 17-228, limits assumed); assay: ELISA; coated recombinant protein, HA-tagged VHH in bacterial extract, anti-HA detection; A405 antigen well / blank well
T1 construct: extracellular domain; Bought protein; also called human FOLR2
T1 sequence (P14207 17-228 limits assumed): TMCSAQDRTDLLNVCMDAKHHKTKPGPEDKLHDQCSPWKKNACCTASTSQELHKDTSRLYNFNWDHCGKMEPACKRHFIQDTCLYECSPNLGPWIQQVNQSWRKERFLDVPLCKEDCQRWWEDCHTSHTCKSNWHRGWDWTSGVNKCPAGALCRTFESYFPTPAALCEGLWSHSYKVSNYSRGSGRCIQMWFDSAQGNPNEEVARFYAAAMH
Description: (§1) The day before, 0.1 µg recombinant protein at a concentration of 1 µg/mL in 100 mM NaHCO3, pH 8.2 was coated in a 96-well ELISA plate (Nunc MaxiSorp). Per VHH clone also a blank coated well was foreseen (only buffer). The wells were overcoated with protein-free T20 (PBS) blocking buffer (Pierce). After washing with PBS, pH7.4, 0.05% Tween, VHH-containing bacterial extract was added to every well. Binding of HA-tagged VHHs was detected by using mouse anti-HA.11 epitope tag (clone 16B12, Biolegend) as the primary Ab and goat anti-mouse IgG (whole molecule) alkaline phosphatase conjugate (Sigma-Aldrich) as the secondary Ab, with thorough washing with PBS, pH 7.4, 0.05% Tween in between. Signals were developed using phosphatase substrate (Sigma-Aldrich) in AP blot buffer (100 mM NaCl, 50 mM MgCl2, 100 mM Tris, pH 9.5). The absorbance was determined at 405 nm using an absorbance microplate reader (Molecular Devices). Per clone the ratio was determined between the absorbance in the antigen-coated well versus the well without antigen.

[2] = biological target: T2, human folate receptor gamma (FOLR3), recombinant (human, UniProt P41439 23-245, limits assumed); assay: as above
T2 construct: extracellular domain; Bought protein; also called human FOLR3
T2 sequence (P41439 23-245 limits assumed): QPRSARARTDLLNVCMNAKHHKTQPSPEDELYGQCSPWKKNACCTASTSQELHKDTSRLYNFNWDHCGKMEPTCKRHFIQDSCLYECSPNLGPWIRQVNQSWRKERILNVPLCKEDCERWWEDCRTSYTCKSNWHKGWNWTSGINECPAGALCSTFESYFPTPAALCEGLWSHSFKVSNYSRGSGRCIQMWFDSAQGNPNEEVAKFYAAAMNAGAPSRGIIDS
Description: as §1

[3] = biological target: T3, murine FOLR1, extracellular domain, recombinant (murine, UniProt P35846 25-232); assay: as above
T3 construct: extracellular domain; Bought protein; also called mouse FOLR1
T3 sequence (P35846 25-232 limits assumed): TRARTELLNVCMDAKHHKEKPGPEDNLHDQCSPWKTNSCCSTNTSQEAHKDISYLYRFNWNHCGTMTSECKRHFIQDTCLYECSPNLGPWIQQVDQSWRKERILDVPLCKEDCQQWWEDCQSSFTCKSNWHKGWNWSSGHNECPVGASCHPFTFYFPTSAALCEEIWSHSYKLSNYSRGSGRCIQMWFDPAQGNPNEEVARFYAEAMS
Description: as §1

[4] = biological target: T1, human folate receptor beta (FOLR2), …; assay: ELISA, coated recombinant protein, HA-tagged VHH in bacterial extract
Description: as §1

[5] = biological target: T2, human folate receptor gamma (FOLR3), …; assay: as above
Description: as §1

[6] = biological target: T3, murine FOLR1, extracellular domain, …; assay: as above
Description: as §1

[7] = biological target: human FOLR1 recombinant protein (extracellular domain of human folate receptor alpha) (human) (UniProt P15328); assay: ELISA; coated recombinant protein, HA-tagged VHH in bacterial extract, anti-HA detection; A405 antigen well / blank well
human FOLR1 recombinant protein (extracellular domain of human folate receptor alpha) (human), sequence (P15328 25-233): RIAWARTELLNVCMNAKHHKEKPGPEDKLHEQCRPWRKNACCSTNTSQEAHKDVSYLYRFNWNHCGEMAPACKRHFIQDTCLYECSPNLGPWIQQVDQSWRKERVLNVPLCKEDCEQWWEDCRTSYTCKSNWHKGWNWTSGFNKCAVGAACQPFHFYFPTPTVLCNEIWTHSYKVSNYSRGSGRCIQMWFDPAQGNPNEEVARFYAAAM

[8] = biological target: T4, human FOLR1 recombinant protein (extracellular domain of human folate receptor alpha) (human, UniProt P15328 25-233); assay: SPR dual injection on immobilized human FOLR1, 250 nM; competitor (1st VHH, saturating) A3; by the legend the value is of the 2nd VHH
T4 construct: Bought recombinant protein (Sino Biological); also called hFOLR1; FR-alpha
T4 sequence (P15328 25-233): as above
Description: (§2) Competitive binding characteristics of His₆-tagged VHHs were determined via surface plasmon resonance with a Biacore T200 instrument (GE Healthcare). Immobilization of human FOLR1 recombinant protein (Sino Biological) and regeneration were performed as described below for kinetic measurements.
(§3) Table 8: Side-by-side comparison of His₆-tagged VHHs A1, A2, A3, A4, A5 for binding to human FOLR1 to identify competitive binding characteristics. Binding was measured in surface plasmon resonance with immobilized human FOLR1 recombinant protein as the ligand. After saturation of the ligand with VHH 1 an equimolar mixture of VHH 1 and VHH 2 was injected. Percentages express the loss in response level of VHH 2, relative to the response when VHH 2 was injected alone.

[9] = biological target: T4, human FOLR1 recombinant protein …; assay: SPR dual injection on immobilized human FOLR1, 250 nM; competitor (1st VHH, saturating) A2; by the legend the value is of the 2nd VHH
Description: as §2, §3

[10] = biological target: T4, human FOLR1 recombinant protein …; assay: SPR dual injection on immobilized human FOLR1, 250 nM; competitor (1st VHH, saturating) A4; by the legend the value is of the 2nd VHH
Description: as §2, §3

[11] = biological target: T4, human FOLR1 recombinant protein …; assay: SPR (Biacore T200), human FOLR1 immobilized on CM5, His6-tagged VHH as analyte, 1:1 fit
Description: The kinetic parameters of antigen binding by purified VHHs were determined via surface plasmon resonance with a Biacore T200 instrument (GE Healthcare). The human FOLR1 recombinant protein (Sino Biological) was immobilized in 10 mM sodium acetate, pH 5.5 on a CM5 chip (GE Healthcare) via amine coupling chemistry to 500 RU. His₆-tagged VHHs were analyzed in a twofold serial dilution in HBS (125 nM-0.488 nM for VHHs A4 and A5; 10 nM-0.039 nM for VHHs A1, A2 and A3) with an analyte flow rate of 30 µl/min. The association phase took 180 s (A4-A5) or 450 s (A1-A3) and the dissociation phase 600 s (A4-A5) or 900 s (A1-A3). Regeneration was done by a single injection of 50 mM glycine-HCl, pH 2.5, 2 M MgCl₂ for 30 s at 30 µl/min, followed by 120 s stabilization. Binding curves were fitted using a ‘1:1 (antigen:analyte)’ binding model in Biacore T200 evaluation software.

[12] = biological target: T4, human FOLR1 recombinant protein …; assay: SPR dual injection on immobilized human FOLR1, 250 nM; competitor (1st VHH, saturating) A1; by the legend the value is of the 2nd VHH
Description: as §2, §3

[13] = biological target: T4, human FOLR1 recombinant protein …; assay: SPR dual injection on immobilized human FOLR1, 250 nM; competitor (1st VHH, saturating) A5; by the legend the value is of the 2nd VHH
Description: as §2, §3

[14] = biological target: T4, human FOLR1 recombinant protein …; assay: SPR (Biacore T200), single cycle kinetics, His6-tagged VHH immobilized on CM5, human FOLR1 as analyte, 1:1 fit
Description: The kinetic parameters of antigen binding for purified VHHs A1, A2 and A3 were determined via surface plasmon resonance with a Biacore T200 instrument (GE Healthcare) using single cycle kinetics mode. While example 4d provides a first and preferred way of assessing the kinetic parameters of antigen binding for VHHs using surface plasmon resonance, this example provides an alternative setup for using surface plasmon resonance to assess the kinetic parameters of antigen binding, inverting the analyte and immobilized ligand. His₆-tagged VHH A1, A2 or A3 was immobilized in 10 mM sodium acetate, pH 5.5 on a CM5 chip (GE Healthcare) via amine coupling chemistry to 160 RU. The human FOLR1 recombinant protein (Sino Biological) was analyzed in a threefold serial dilution in HBS (38.5 nM-0.47 nM) with an analyte flow rate of 30 µl/min. The association phase took 180 s for every concentration and the dissociation phase 900 s. Regeneration was done by a single injection of 50 mM glycine-HCl, pH 2.5, 2 M MgCl2 for 30 s at 30 µl/min, followed by 120 s stabilization. Binding curves were fitted using a ‘1:1 (antigen:analyte)’ binding model in Biacore T200 evaluation software.

[15] = biological target: T5, human FOLR1 expressed on SKOV-3 ovarian carcinoma cells (human, UniProt P15328 25-234); assay: cellular retention on SKOV-3 cells: 10 nM 131I-VHH 1 h at 4 C, then up to 24 h at 37 C; membrane-bound plus internalized fraction
T5 construct: Naturally expressed receptor on SKOV-3 cells; also called human FOLR1pos SKOV-3 cancer cells; human FOLR1-expressing cell line SKOV-3
T5 sequence (P15328 25-234 limits assumed): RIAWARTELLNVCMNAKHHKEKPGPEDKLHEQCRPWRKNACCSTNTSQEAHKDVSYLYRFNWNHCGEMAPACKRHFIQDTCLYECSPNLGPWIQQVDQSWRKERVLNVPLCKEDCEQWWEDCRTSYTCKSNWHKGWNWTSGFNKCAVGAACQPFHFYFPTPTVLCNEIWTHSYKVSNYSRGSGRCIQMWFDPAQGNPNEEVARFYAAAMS
Description: The in vitro cellular retention of the different His₆- and untagged ¹³¹I-labeled VHHs was assessed on the same cancer cells. In this particular case, human FOLR1^pos SKOV-3 cancer cells were incubated with 10 nM ¹³¹I-labelled VHHs for 1h at 4° C., after which the unbound fraction was collected. A 100-fold excess of the corresponding unlabeled VHH to assess non-specific binding. Next, the cells were incubated with fresh medium up to 24 h at 37° C., after which the dissociated fraction was collected. Afterwards, the cells were washed with 0.05 M glycine pH 2.8 to collect the membrane-bound fraction. Finally, cells were solubilized with 1 M NaOH at room temperature to collect the internalized fraction. The sum of the membrane-bound and internalized fractions corresponds to the total cell-associated fraction.

[16] = biological target: T5, human FOLR1 expressed on SKOV-3 ovarian …; assay: saturation binding of 131I-labelled untagged VHH on SKOV-3 cells

Row | Binder | signal-to-background ratio [1] | signal-to-background ratio [2] | signal-to-background ratio [3] | binding result [4] | binding result [5] | binding result [6] | signal-to-background ratio [7] | loss in response level of VHH 2 relative to VHH 2 injected alone [8] [%] | loss in response level of VHH 2 relative to VHH 2 injected alone [9] [%] | Kd [11] [nM] | koff [11] [s⁻¹] | kon [11] [M⁻¹ s⁻¹] | further results
1 | B1 | ~1 | ~1 | ~1 | no binding | no binding | no binding | > 20 | – | – | – | – | – | –
2 | B2 | ~1 | ~1 | ~1 | no binding | no binding | no binding | > 20 | – | – | – | – | – | –
3 | B3 | ~1 | ~1 | ~1 | no binding | no binding | no binding | > 20 | – | – | – | – | – | –
4 | B4 | – | – | – | – | – | – | – | -100 | -99 | 14 | 0.018 | 1.3e+06 | loss in response level of VHH 2 relative to VHH 2 injected alone [10]: -98%; loss in response level of VHH 2 relative to VHH 2 injected alone [12]: -96%
5 | B5 | – | – | – | – | – | – | – | -100 | -99 | 4.3 | 0.0057 | 1.3e+06 | loss in response level of VHH 2 relative to VHH 2 injected alone [12]: -97%; loss in response level of VHH 2 relative to VHH 2 injected alone [13]: -91%
6 | B6 | – | – | – | – | – | – | – | -100 | -98 | 0.04 | 0.00014 | 3.6e+06 | loss in response level of VHH 2 relative to VHH 2 injected alone [10]: -98%; Kd [14]: 0.44 nM; koff [14]: 0.00019 s⁻¹; kon [14]: 430000 M⁻¹ s⁻¹; loss in response level of VHH 2 relative to VHH 2 injected alone [13]: -91%
7 | B7 | – | – | – | – | – | – | – | – | – | – | – | – | cell-associated fraction of initial bound activity after 24 h [15]: 15%; EC50 [16]: 5.8 nM
